The target in experiment [1] is PS1 COOH-terminal bait (human). The experiment can be described thus: two-hybrid.
Experiment [2] addresses PS2 COOH-terminal 39-amino acid bait (residues K410-I448) (human) (UniProt P49810). The experiment can be described thus: two-hybrid.

We go through two substances from article PMC2169435.

Chain of PS2 COOH-terminal 39-amino acid bait (residues K410-I448) (human) (P49810 410-448): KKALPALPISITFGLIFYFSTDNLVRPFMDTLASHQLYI

On to “near full-length ubiquilin Y2H prey clone (residues 37-595) (domain or fragment)”, for which the fold beta-galactosidase activity over negative-control baits is over 12 fold in experiment [1] and over 55 fold in experiment [2].
On to “ubiquilin Y2H prey clone encoding the COOH-terminal 218 residues (domain or fragment)”, for which the fold beta-galactosidase activity over negative-control baits in experiment [2] is over 55 fold.
